The values that follow come from patent publication US20230220071A1 (Hoffmann-La Roche, published 2023).

The labels stand for the following.
B1: clone 299 VH 0 (rb) / VL 5 (antibody, V domains shown)
VH: QSMEESGGRLVTPGTPLTLTCTVSGFSLSSYAMSWVRQAPGKGLEWIGYIWSGGSTDYASWAKGRFTISKTSTTVDLKITSPTTEDTATYFCARRYGTSYPDYGDANGFDPWGPGTLVTVSS
VL: DIQMTQSPSSLSASVGDRVTITCRASQSISSYLSWYQQKPGKAPKLLIYRASTLASGVPSRFSGSGSGTDFTLTISSLQPEDFATYYCQQSYSSSNVDNTFGGGTKVEIK
B2: clone 299 VH 9 / VL 9-NYA (antibody, V domains shown)
VH: QQLLESGGGLVQPGGSLRLSCAASGFTFSSYAMSWVRQAPGKGLEWVGYIWSGGSTDYADSVKGRFTISRDNSKNTLYLQMNSLRAEDTAVYYCAKRYGTSYPDYGDANGFDPWGQGTLVTVSS
VL: AIQLTQSPSSLSASVGDRVTITCRASQSISSYLAWYQQKPGKAPKLLIYRASTLASGVPSRFSGSGSGTDFTLTISSLQPEDFATYYCQQNYASSNVDNTFGGGTKVEIK
B3: clone 299 VH 0 (rb) / VL 17 (antibody, V domains shown)
VH: QSMEESGGRLVTPGTPLTLTCTVSGFSLSSYAMSWVRQAPGKGLEWIGYIWSGGSTDYASWAKGRFTISKTSTTVDLKITSPTTEDTATYFCARRYGTSYPDYGDANGFDPWGPGTLVTVSS
VL: AIQLTQSPSSLSASVGDRVTITCRASQSISSYLAWYQQKPGKAPKLLIYRASTLASGVPSRFSGSGSGTDFTLTISSLQPEDFATYYCQQTYSSSNVDNTFGGGTKVEIK
B4: clone 299 VH 0 (rb) / VL 8 (antibody, V domains shown)
VH: QSMEESGGRLVTPGTPLTLTCTVSGFSLSSYAMSWVRQAPGKGLEWIGYIWSGGSTDYASWAKGRFTISKTSTTVDLKITSPTTEDTATYFCARRYGTSYPDYGDANGFDPWGPGTLVTVSS
VL: AYQLTQSPSSLSASVGDRVTITCRASQSISSYLSWYQQKPGKAPKLLIYRASTLASGVPSRFSGSGSGTDFTLTISSLQPEDFATYYCQQSYSSSNVDNTFGGGTKVEIK
B5: clone 299 VH 0 (rb) / VL 12 (antibody, V domains shown)
VH: QSMEESGGRLVTPGTPLTLTCTVSGFSLSSYAMSWVRQAPGKGLEWIGYIWSGGSTDYASWAKGRFTISKTSTTVDLKITSPTTEDTATYFCARRYGTSYPDYGDANGFDPWGPGTLVTVSS
VL: DIQMTQSPSSLSASVGDRVTITCRASQSISSYLAWYQQKPGKAPKLLIYRASTLASGVPSRFSGSRSGTDFTLTISSLQPEDFATYYCQQHYSSSNVDNTFGGGTKVEIK
B6: clone 299 VH 0 (rb) / VL 7 (antibody, V domains shown)
VH: QSMEESGGRLVTPGTPLTLTCTVSGFSLSSYAMSWVRQAPGKGLEWIGYIWSGGSTDYASWAKGRFTISKTSTTVDLKITSPTTEDTATYFCARRYGTSYPDYGDANGFDPWGPGTLVTVSS
VL: AIQLTQSPSSLSASVGDRVTITCRASQSISSYLAWYQQKPGKAPKLLIYRASTLASGVPSRFSGSGSGTDFTLTISSLQPEDFATYYCQQSYSSSNVDNTFGGGTKVEIK
B7: clone 299 VH 0 (rb) / VL 6 (antibody, V domains shown)
VH: QSMEESGGRLVTPGTPLTLTCTVSGFSLSSYAMSWVRQAPGKGLEWIGYIWSGGSTDYASWAKGRFTISKTSTTVDLKITSPTTEDTATYFCARRYGTSYPDYGDANGFDPWGPGTLVTVSS
VL: AIQLTQSPSSLSASVGDRVTITCRASQSISSYLSWYQQKPGKAPKLLIYRASTLASGVPSRFSGSGSGTDFTLTISSLQPEDFATYYCQQSYSSSNVDNTFGGGTKVEIK
B8: clone 299 VH 0 (rb) / VL 10 (antibody, V domains shown)
VH: QSMEESGGRLVTPGTPLTLTCTVSGFSLSSYAMSWVRQAPGKGLEWIGYIWSGGSTDYASWAKGRFTISKTSTTVDLKITSPTTEDTATYFCARRYGTSYPDYGDANGFDPWGPGTLVTVSS
VL: DIQMTQSPSSLSASVGDRVTITCRASQSISSYLSWYQQKPGKAPKLLIYRASTLASGVPSRFSGSRSGTDFTLTISSLQPEDFATYYCQQSYSSSNVDNTFGGGTKVEIK

The koff is the rate constant with which the complex falls apart. Low readings indicate a long-lived complex, high ones a short-lived complex.

T1 sequence (P02786 89-760): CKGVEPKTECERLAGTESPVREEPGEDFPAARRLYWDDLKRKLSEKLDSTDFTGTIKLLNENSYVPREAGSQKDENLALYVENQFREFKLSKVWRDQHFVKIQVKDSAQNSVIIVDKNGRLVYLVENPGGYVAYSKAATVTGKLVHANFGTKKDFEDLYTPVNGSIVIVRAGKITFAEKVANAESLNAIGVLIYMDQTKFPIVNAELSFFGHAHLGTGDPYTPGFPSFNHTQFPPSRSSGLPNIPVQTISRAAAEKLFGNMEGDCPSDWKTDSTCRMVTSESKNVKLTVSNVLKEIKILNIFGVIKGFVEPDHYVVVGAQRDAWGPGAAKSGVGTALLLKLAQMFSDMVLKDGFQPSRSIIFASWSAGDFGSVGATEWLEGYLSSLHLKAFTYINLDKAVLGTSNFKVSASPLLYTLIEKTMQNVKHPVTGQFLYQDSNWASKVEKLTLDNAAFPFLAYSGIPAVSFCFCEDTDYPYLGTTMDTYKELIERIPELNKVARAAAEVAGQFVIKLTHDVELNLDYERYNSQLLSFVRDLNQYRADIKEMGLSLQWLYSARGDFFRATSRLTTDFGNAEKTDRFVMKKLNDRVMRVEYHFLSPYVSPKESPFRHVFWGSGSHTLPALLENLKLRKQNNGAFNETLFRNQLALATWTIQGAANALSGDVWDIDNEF

This test concerns the target T1, human transferrin receptor (BIAcore, construct not stated) (human, UniProt P02786 89-760).
T1 construct: also called huTfR
Nature of the test: SPR, 25 C. For orientation: SPR reads the build-up and loss of mass on a sensor chip optically.
For the molecule B1, the off-rate constant (koff) is 0.00194 s⁻¹.

Regarding B2, the koff turned out to be 0.00252 s⁻¹.

B3 returned a koff of 0.00149 s⁻¹.

As to B4, the off-rate constant (koff) worked out at 0.00139 s⁻¹.

The molecule B5 came in with a koff of 0.00541 s⁻¹.

In turn, B6 registered a koff of 0.00463 s⁻¹.

Molecule B7 gave a koff of 0.0019 s⁻¹.

Take B8: the koff came to 0.00188 s⁻¹.
